In the supplement of paper PMC7125110:
± gives the standard error. Variants at the floor of the assay were thinned out.

B1: glmS ribozyme (parent)
chain: AUAAAAGCGCCAGAACUACAGAAAUGUAGUUGACGAGGAGGAGGUUUAUCGAAUUUUCGGCGGAUGCCUCCAAA

Columns and labels:
Conditions in all cases: with glucosamine-6-phosphate
glucosamine-6-phosphate [1] = variants of: B1; test: self-cleavage kobs at 40 uM GlcN6P; higher = faster cleavage; RNA array
Summary of the method: (§1)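 Weighted Michaelis–Menten fits across concentrations supplied kcat and KM, based on kobs from one- or two-exponential decay fits to normalised per-tile medians. The data came from barcoded ribozyme variants transcribed in situ by E. coli RNA polymerase on sequenced MiSeq chips and tracked at 37 °C by a hybridised Cy3 probe. Glucosamine-6-phosphate (40 μM to 10 mM) in HEPES/KCl/Mg(OAc)2 buffer was flowed in.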

glucosamine-6-phosphate [2] = variants of: B1; test: self-cleavage kobs at 10000 uM GlcN6P; higher = faster cleavage; RNA array
Summary of the method: as §1

glucosamine-6-phosphate [3] = variants of: B1; test: self-cleavage kobs at 640 uM GlcN6P; higher = faster cleavage; RNA array
Summary of the method: as §1

glucosamine-6-phosphate [4] = variants of: B1; test: self-cleavage kobs at 160 uM GlcN6P; higher = faster cleavage; RNA array
Summary of the method: as §1

glucosamine-6-phosphate [5] = variants of: B1; test: self-cleavage kobs at 2500 uM GlcN6P; higher = faster cleavage; RNA array
Summary of the method: as §1

Variant	self-cleavage kobs at 40 uM GlcN6P (glucosamine-6-phosphate [1]) [s⁻¹]	self-cleavage kobs at 10000 uM GlcN6P (glucosamine-6-phosphate [2]) [s⁻¹]	self-cleavage kobs at 640 uM GlcN6P (glucosamine-6-phosphate [3]) [s⁻¹]	self-cleavage kobs at 160 uM GlcN6P (glucosamine-6-phosphate [4]) [s⁻¹]	self-cleavage kobs at 2500 uM GlcN6P (glucosamine-6-phosphate [5]) [s⁻¹]
A52G U65A U69G C70U	5.09e-05 ± 1.9e-05	3.34e-05 ± 1.4e-05			
A53C C61G	< 1e-05	< 1e-05	< 1e-05		
A53C C61U	< 1e-05		< 1e-05	< 1e-05	
U47C G66C C67U	< 1e-05				
U47G C58U C70A	7.14e-05 ± 3e-05	4.44e-05 ± 2.1e-05			9.31e-05 ± 2e-05
A53G U54G	0.00114 ± 0.00028	0.081 ± 0.028	0.00511 ± 0.0011	0.00165 ± 0.00047	0.00388 ± 0.0012
A53G U54A	0.000851 ± 0.00024	0.0724 ± 0.027	0.0083 ± 0.0014	0.00267 ± 0.00057	0.0106 ± 0.0043
U56A C70U C71U	5.46e-05 ± 1.5e-05	8.85e-05 ± 1.7e-05	8.84e-05 ± 1.7e-05		0.000232 ± 5.2e-05
G51U U57C	< 1e-05	< 1e-05	< 1e-05		
A52C U56C	< 1e-05				< 1e-05
G51A U65C	< 1e-05	< 1e-05			
G51A U65A	< 1e-05	< 1e-05			< 1e-05
A48C C58U	< 1e-05	< 1e-05	< 1e-05	< 1e-05	
U56A C70U	0.000377 ± 3.2e-05	0.0156 ± 0.0024	0.002 ± 0.00026	0.000852 ± 0.00013	0.0104 ± 0.0022
U56A C67U	0.000175 ± 1.9e-05	0.00679 ± 0.0012	0.000938 ± 8.9e-05	0.000452 ± 6.1e-05	0.00474 ± 0.00085
A48U G62C C70U	< 1e-05	< 1e-05	< 1e-05		< 1e-05
U55A G62U	< 1e-05	< 1e-05	< 1e-05		< 1e-05
C58G G62U C68A	4.88e-05 ± 1.8e-05				
C50A C58U C61U G63U	< 1e-05				
A53G C67A	0.000314 ± 3.3e-05	0.00957 ± 0.0018	0.00067 ± 0.00014		0.000612 ± 0.00025
C50G C58A C67A	7.83e-05 ± 1.2e-05	9.18e-05 ± 1.4e-05			
U57G G62A	< 1e-05	< 1e-05			
U49A C67A U69C	< 1e-05				

Variant	self-cleavage kobs at 40 uM GlcN6P (glucosamine-6-phosphate [1]) [s⁻¹]	self-cleavage kobs at 10000 uM GlcN6P (glucosamine-6-phosphate [2]) [s⁻¹]	self-cleavage kobs at 640 uM GlcN6P (glucosamine-6-phosphate [3]) [s⁻¹]	self-cleavage kobs at 160 uM GlcN6P (glucosamine-6-phosphate [4]) [s⁻¹]	self-cleavage kobs at 2500 uM GlcN6P (glucosamine-6-phosphate [5]) [s⁻¹]
U54A C70G	6.49e-05 ± 8.1e-06	0.000131 ± 1.5e-05	0.00033 ± 5.7e-05	6.78e-05 ± 1e-05	0.000176 ± 2.2e-05
G51A U54A U55A	< 1e-05				
A48C G66C	< 1e-05	3.05e-05 ± 1.2e-05		< 1e-05	
U54G G63A A64U C70U	< 1e-05				
U57C G62U U65C	< 1e-05	< 1e-05			
A48U C61U	< 1e-05		< 1e-05		
A48U A64C C67U	< 1e-05	< 1e-05	< 1e-05		
G51A G62C	< 1e-05	< 1e-05	< 1e-05	< 1e-05	< 1e-05
A48G G51U	< 1e-05			< 1e-05	
C50G C70A C71G	7.15e-05 ± 1.7e-05	6.95e-05 ± 1.6e-05			
A48C A52G	< 1e-05		< 1e-05	< 1e-05	
C50U C61G G63U	< 1e-05				
U56C G59A	< 1e-05				
U47G G60U	< 1e-05			< 1e-05	< 1e-05
U56C U69C C70A	< 1e-05	< 1e-05	< 1e-05	< 1e-05	< 1e-05
U49C C50A	< 1e-05			< 1e-05	
A52G C61G	< 1e-05	< 1e-05			
G59C C68U	< 1e-05				
G59C U65A	< 1e-05	< 1e-05	< 1e-05	< 1e-05	
G59C U65G	< 1e-05	< 1e-05	< 1e-05		
U55C U56A	0.000256 ± 4.6e-05	0.0148 ± 0.0032			0.0131 ± 0.0031
U54A U69C	0.000835 ± 0.00028	0.000426 ± 0.00011	0.000282 ± 6e-05	0.000323 ± 8.9e-05	0.000214 ± 6.2e-05
A53G C67A C70U	0.000161 ± 2.5e-05	0.00035 ± 9e-05			
